This assay has as its target T1, human factor VIII (human, UniProt P00451 20-2351).
T1 construct: also called FVIII
In words: Surface Plasmon Resonance.

From patent US20110010786A1 (published 2011) come the findings set out here.

Broadly, the koff is the first-order rate constant of dissociation. A low value points to slow dissociation.

T1 sequence (P00451 20-2351 limits assumed): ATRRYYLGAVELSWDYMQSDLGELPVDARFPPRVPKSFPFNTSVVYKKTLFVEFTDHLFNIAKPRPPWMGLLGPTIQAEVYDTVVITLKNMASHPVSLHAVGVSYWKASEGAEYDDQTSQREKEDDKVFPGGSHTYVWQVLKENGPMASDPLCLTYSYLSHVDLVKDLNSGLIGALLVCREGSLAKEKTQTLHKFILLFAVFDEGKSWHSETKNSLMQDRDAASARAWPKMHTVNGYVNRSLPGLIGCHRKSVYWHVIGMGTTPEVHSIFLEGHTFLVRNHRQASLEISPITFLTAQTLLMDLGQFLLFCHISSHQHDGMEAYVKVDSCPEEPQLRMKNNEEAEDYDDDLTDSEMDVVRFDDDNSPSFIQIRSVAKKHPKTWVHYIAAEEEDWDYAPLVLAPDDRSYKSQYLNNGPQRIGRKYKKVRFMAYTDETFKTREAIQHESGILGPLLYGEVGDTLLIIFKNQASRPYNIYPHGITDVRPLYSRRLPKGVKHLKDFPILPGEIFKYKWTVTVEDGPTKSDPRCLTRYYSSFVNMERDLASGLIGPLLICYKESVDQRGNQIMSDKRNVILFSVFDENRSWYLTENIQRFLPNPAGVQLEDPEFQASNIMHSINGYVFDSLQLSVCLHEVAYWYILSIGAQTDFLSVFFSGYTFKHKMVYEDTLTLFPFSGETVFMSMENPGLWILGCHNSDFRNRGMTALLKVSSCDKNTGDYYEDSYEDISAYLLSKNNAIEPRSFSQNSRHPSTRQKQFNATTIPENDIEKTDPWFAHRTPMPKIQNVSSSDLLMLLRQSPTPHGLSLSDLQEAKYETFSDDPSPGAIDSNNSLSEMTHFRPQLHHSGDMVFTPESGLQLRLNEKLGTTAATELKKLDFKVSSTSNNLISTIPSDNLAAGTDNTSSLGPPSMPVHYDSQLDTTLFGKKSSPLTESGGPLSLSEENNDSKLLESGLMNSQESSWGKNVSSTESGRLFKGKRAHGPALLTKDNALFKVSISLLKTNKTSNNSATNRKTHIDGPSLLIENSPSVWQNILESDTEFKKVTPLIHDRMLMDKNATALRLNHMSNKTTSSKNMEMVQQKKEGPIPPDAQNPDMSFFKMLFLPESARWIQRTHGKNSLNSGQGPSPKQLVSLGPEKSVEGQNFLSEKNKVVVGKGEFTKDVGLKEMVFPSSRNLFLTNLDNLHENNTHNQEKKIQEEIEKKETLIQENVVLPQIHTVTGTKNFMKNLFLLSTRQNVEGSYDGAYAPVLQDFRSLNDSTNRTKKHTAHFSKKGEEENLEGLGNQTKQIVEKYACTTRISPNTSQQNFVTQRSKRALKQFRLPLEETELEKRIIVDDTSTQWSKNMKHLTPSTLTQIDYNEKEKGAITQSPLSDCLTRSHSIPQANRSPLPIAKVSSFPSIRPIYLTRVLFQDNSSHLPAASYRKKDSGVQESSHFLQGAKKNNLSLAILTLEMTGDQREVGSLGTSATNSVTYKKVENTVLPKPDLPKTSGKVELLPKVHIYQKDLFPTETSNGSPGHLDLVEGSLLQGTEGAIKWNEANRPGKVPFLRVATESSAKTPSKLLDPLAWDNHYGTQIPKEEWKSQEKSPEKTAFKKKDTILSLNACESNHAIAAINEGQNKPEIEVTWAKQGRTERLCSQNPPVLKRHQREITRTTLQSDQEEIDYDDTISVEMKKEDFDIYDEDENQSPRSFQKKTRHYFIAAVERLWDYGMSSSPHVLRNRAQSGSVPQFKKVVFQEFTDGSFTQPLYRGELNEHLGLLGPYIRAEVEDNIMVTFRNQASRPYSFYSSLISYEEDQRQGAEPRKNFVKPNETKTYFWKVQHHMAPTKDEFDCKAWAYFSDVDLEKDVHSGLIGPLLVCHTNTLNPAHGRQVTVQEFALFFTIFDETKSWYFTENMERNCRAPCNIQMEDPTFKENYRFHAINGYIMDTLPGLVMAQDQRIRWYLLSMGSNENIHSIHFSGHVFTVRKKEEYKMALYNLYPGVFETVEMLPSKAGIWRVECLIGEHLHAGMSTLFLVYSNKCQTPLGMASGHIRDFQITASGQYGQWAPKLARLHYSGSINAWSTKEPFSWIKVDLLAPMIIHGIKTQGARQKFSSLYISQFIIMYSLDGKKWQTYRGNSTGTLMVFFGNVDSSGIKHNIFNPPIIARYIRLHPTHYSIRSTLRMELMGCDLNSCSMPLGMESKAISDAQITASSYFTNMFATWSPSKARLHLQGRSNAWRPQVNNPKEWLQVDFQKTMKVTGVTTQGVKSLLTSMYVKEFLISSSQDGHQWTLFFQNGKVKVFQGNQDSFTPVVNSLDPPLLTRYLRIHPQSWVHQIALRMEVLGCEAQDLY

B1: human monoclonal antibody BO2C11 (antibody, V domains shown)
VH: QVQLVQSGAEVKKPGASVKVSCKVSGYTLTELPVHWVRQAPGKGLEWVGSFDPESGESIYAREFQGSVTMTADTSTDIAYMELSSLRSDDTAVYYCAVPDPDAFDIWGQGTMVTVSS
VL: EIALTQSPGTLSLSPGERATLSCRASQSFSSSYLAWYQQKPGQAPRLLIYGASTRATGIPDRFSGSGSGTDFTLTISRLEPEDFAVYYCQKYGTSAITFGQGTRLEIK
notes: also called B02C11
The molecule B1 came in with a koff of at most 1e-05 s⁻¹.
